B1: H3R-YFP (rat histamine H3 receptor, long isoform H3(445)R, fused to Yellow Fluorescent Protein) (receptor, UniProt Q9QYN8 1-445, looked up)
chain: MERAPPDGLMNASGTLAGEAAAAGGARGFSAAWTAVLAALMALLIVATVLGNALVMLAFVADSSLRTQNNFFLLNLAISDFLVGAFCIPLYVPYVLTGRWTFGRGLCKLWLVVDYLLCASSVFNIVLISYDRFLSVTRAVSYRAQQGDTRRAVRKMALVWVLAFLLYGPAILSWEYLSGGSSIPEGHCYAEFFYNWYFLITASTLEFFTPFLSVTFFNLSIYLNIQRRTRLRLDGGREAGPEPPPDAQPSPPPAPPSCWGCWPKGHGEAMPLHRYGVGEAGPGVEAGEAALGGGSGGGAAASPTSSSGSSSRGTERPRSLKRGSKPSASSASLEKRMKMVSQSITQRFRLSRDKKVAKSLAIIVSIFGLCWAPYTLLMIIRAACHGRCIPDYWYETSFWLLWANSAVNPVLYPLCHYSFRRAFTKLLCPQKLKVQPHGSLEQCWK
notes: histamine H3 receptor, rat, long isoform H3(445)R (445 residues), cDNA amplified without its stop codon and cloned into pEYFP-N1; The same construct was expressed in HEK 293 cells and in rat cortical neurons; the assay tells which; also called C-terminal YFP-fused H3R; source: rat cortical neurons in primary culture, transfected (lipofectamine 2000); not shown: YFP, C-terminal, kept

Legend:
[1] = target: T1, histamine H3 receptor (H3R) (Rattus norvegicus, UniProt Q9QYN8); assay: BRET between H3R-RLuc and H3R-YFP in HEK […] cells; also […]GTPγS binding (inverse agonist); format: cell-based
T1 construct: gene Hrh3; long isoform H3(445)R, C-terminal RLuc / YFP fusions

[2] = target: T2, H3R-RLuc (rat histamine H3 receptor, long isoform H3(445)R, fused to Renilla Luciferase) (rat, UniProt Q9QYN8 1-445); assay: FRET or BRET; BRET donor saturation curves in intact living HEK 293 cells, constant RLuc fusion and increasing YFP fusion, 48 h after transfection, HBSS, 25 °C, coelenterazine H 5 µM; without or with imetit or thioperamide (100 nM); conditions: partners not purified
T2 construct: histamine H3 receptor, rat, long isoform H3(445)R (445 residues), cDNA amplified without its stop codon and cloned into pRL-CMV-RLuc; The same construct was expressed in HEK 293 cells and in rat cortical neurons; the assay tells which; also called H3R-Luc; source: rat cortical neurons in primary culture, transfected (lipofectamine 2000); not shown: Renilla Luciferase (RLuc), C-terminal, kept

| Molecule | EC50 [1] [nM] | BRET50 (basal) [2] [acceptor/donor ratio] | BRET50 (with imetit 100 nM) [2] [acceptor/donor ratio] | BRET50 (with thioperamide 100 nM) [2] [acceptor/donor ratio] |
| --- | --- | --- | --- | --- |
| S=C(NC1CCCCC1)N1CCC(c2cnc[nH]2)CC1 [thioperamide] | 2 ± 1 |  |  |  |
| B1 |  | 1.24 | 1.19 | 1.56 |

— PMC8508734 (International Journal of Molecular Sciences, 2021)
